Assay [1] deals with T1, human IL-22RA on cells (HepG2 hepatoma cells, normal human keratinocytes, BaF3 cells transfected with human … (human, UniProt Q8N6P7 16-574)).
T1 sequence: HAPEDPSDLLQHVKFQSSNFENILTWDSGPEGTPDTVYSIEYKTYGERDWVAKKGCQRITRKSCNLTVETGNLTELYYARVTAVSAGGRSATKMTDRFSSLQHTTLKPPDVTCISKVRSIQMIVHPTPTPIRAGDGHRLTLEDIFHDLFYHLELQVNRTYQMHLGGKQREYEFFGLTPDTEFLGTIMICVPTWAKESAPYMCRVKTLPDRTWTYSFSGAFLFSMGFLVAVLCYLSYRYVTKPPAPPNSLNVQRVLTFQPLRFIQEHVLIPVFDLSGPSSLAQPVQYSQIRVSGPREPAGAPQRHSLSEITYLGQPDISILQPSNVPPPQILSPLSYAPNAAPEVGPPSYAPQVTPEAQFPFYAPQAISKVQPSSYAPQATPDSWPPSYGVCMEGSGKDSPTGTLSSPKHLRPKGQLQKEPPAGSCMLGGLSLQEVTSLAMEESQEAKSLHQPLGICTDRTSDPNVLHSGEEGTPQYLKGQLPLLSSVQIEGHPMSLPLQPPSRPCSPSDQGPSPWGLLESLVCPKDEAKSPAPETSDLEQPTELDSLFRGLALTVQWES
Description: cell-based or functional assay.

Assay [2] has as its target T2, human IL-22RA-ECD (IL-22RA-Extra Cellular Domain) (human, UniProt Q8N6P7 16-228).
T2 construct: also called human IL-22RA extracellular domain; hIL-22RA coated on the plates; not shown: 6 His tag
T2 sequence: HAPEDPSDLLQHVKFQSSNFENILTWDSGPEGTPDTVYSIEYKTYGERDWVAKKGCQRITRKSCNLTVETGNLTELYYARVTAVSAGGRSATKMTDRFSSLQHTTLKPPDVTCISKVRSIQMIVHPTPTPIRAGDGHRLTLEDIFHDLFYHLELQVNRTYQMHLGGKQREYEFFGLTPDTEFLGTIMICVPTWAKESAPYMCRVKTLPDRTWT
Description: KinExA, IL-22RA-ECD with 6 His tag.

For assay [3], the target named is T3, mouse IL-22RA-ECD (mouse, UniProt Q80XZ4 16-230).
T3 construct: extracellular domain; Produced in HEK-293 cells and NiNTA-purified; not shown: 6 His tag
T3 sequence (looked up): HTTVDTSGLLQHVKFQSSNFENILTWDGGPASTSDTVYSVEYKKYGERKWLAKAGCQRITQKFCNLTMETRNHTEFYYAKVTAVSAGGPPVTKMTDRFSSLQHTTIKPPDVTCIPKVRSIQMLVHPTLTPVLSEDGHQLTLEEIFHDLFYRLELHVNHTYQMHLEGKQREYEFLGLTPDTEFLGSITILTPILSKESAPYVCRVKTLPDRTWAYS
Description: KinExA, IL-22RA-ECD with 6 His tag.

Assay [4] concerns the target T4, rat IL-22RA-ECD (rat).
T4 construct: extracellular domain; Produced in HEK-293 cells and NiNTA-purified
Nature of the assay: KinExA, IL-22RA-ECD with 6 His tag.

Assay [5] has as its target T5, rhesus monkey IL-22RA-ECD (rhesus monkey).
T5 construct: extracellular domain; Produced in HEK-293 cells and NiNTA-purified
Nature of the assay: KinExA, IL-22RA-ECD with 6 His tag.

Assay [6] addresses T6, cynomolgus monkey IL-22RA-ECD (cynomolgus monkey).
T6 construct: extracellular domain; Produced in HEK-293 cells and NiNTA-purified
Description: KinExA, IL-22RA-ECD with 6 His tag.

Assay [7] addresses T7, marmoset monkey IL-22RA-ECD (marmoset monkey).
T7 construct: extracellular domain; Produced in HEK-293 cells and NiNTA-purified
Description: KinExA, IL-22RA-ECD with 6 His tag.

For assay [8], the target named is T2, human IL-22RA-ECD (IL-22RA-Extra …). Description: Biacore, IL-22RA-ECD with 6 His tag.
The target of assay [9] is T3, mouse IL-22RA-ECD. Description: Biacore, IL-22RA-ECD with 6 His tag.
For assay [10], the target named is T4, rat IL-22RA-ECD. Description: Biacore, IL-22RA-ECD with 6 His tag.
Assay [11] concerns the target T7, marmoset monkey IL-22RA-ECD. Nature of the assay: Biacore, IL-22RA-ECD with 6 His tag.
For a further assay, the target named is T8, dog IL-22RA-ECD (dog).
T8 construct: extracellular domain; Produced in HEK-293 cells and NiNTA-purified
Description: Biacore, IL-22RA-ECD with 6 His tag.

B1: 280.346.TSY (humanized anti-human IL-22RA antibody comprising 280.VH3-66-46 paired with 280.VK4-1-TSY, human IgG1/kappa) (antibody, V domains shown)
VH: EVQLVESGGGLVQPGGSLRLSCAASGYSITAEYMNWVRQAPGKGLEWIGEINPSTGTTTYNQKFKGRFTISVDQSKNTAYLQMNSLRAEDTAVYYCARFDAYFDYWGQGTLVTVSS
VL: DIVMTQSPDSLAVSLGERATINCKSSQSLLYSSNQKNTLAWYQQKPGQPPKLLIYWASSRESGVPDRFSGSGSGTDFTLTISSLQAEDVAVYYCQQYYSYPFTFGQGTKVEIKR
notes: Produced in CHO cells; also called 280.VH3-66-46/VK4-1-TSY; 280.VH3-66.46 paired with 280.IGKV4-1-TSY
For the molecule B1, the “IC50, STAT3 phosphorylation assay in human HepG2 hepatoma cells stimulated with recombinant human IL-22” value in assay [1] is 0.0552 nM. In addition, in [1], the “IC50, STAT3 phosphorylation assay in normal human keratinocytes stimulated with recombinant human IL-22” value came to 0.061 nM. The “IC50, proliferation assay in BaF3 cells transfected with human IL-22RA and IL-10RB, cultured with recombinant human IL-22” value in [1] was found to be 0.317 nM. For the same molecule, the “fold potency against the mouse parental antibody 280.46.3.4, STAT3 phosphorylation assay in HepG2 cells” value in [1] is around 5 fold. The “fold potency against the mouse parental antibody 280.46.3.4, STAT3 phosphorylation assay in normal human keratinocytes” value in assay [1] is around 9 fold. The “fold potency against the mouse parental antibody 280.46.3.4, proliferation of human IL-22 receptor transfected BaF3 cells” value in [1] was found to be 1.7 fold. The Kd in [2] was around 0.0285 nM; in the assay with mouse IL-22RA-ECD [3], around 4.85 nM; in the assay with rat IL-22RA-ECD [4], around 587 nM; in assay [5], around 0.137 nM; in assay [6], around 0.0645 nM; in [7], around 0.0385 nM. For the same molecule, the Kd in assay [8] is around 0.15 nM; with mouse IL-22RA-ECD [9], around 20 nM; with rat IL-22RA-ECD [10], around 1000 nM; in assay [11], 0.4 nM; in the assay with dog IL-22RA-ECD, 100 nM.

The record behind these values is patent publication US20120230990A1 (MERCK SERONO, published 2012).
